Bridges are numbered along the chain shown (N, C = ends). [ ]: non-standard residue; d: D form. Phe(4-Cl) = N[C@@H](Cc1ccc(Cl)cc1)C(=O)O; 2Nal = N[C@@H](Cc1ccc2ccccc2c1)C(=O)O; NMeCha = CN[C@@H](CC1CCCCC1)C(=O)O; NMeR = CN[C@@H](CCCNC(=N)N)C(=O)O; NMeE = CN[C@@H](CCC(=O)O)C(=O)O; NMeQ = CN[C@@H](CCC(N)=O)C(=O)O; Cha = N[C@@H](CC1CCCCC1)C(=O)O; NMeD = CN[C@@H](CC(=O)O)C(=O)O; Cba = N[C@@H](CC1CCC1)C(=O)O; Tle = CC(C)(C)[C@H](N)C(=O)O; S5 = C=CCCC[C@](C)(N)C(=O)O
T1: β-catenin (UniProt P35222 1-781, limits assumed)
T1 construct: also called beta-catenin
T1 sequence (looked up): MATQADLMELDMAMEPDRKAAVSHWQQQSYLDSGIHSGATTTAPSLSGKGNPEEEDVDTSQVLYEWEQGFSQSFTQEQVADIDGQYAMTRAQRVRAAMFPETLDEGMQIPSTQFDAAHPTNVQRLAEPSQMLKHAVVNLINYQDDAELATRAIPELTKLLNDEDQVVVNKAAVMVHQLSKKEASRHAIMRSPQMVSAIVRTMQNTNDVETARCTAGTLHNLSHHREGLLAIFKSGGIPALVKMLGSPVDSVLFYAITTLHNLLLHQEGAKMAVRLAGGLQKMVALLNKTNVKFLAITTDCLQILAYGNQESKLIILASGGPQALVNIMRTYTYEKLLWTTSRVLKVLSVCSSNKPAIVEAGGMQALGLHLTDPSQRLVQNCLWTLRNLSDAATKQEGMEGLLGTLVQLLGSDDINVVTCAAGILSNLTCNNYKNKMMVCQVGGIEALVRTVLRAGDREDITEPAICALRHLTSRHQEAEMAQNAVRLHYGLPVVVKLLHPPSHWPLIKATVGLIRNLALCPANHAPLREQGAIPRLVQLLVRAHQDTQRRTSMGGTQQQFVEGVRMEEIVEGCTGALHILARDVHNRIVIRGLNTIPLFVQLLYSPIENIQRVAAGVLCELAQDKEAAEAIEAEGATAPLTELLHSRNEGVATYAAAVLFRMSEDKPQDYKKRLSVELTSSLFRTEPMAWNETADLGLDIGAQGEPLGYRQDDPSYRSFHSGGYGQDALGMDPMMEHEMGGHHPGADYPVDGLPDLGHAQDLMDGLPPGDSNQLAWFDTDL


Each binder was assayed against T1, β-catenin (assay: ALPHA Screen (BCL9/β-catenin);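 also: bead proximity readout with the polypeptide linked to donor beads and β-catenin fixed on acceptor beads, their binding bringing the beads close enough to emit signal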).
Text: In this assay, a polypeptide is conjugated to a donor bead and its target protein (i.e., β-catenin) is attached to an acceptor bead. When the two beads are in proximity due to the binding of the polypeptide to the target protein, a signal is generated and the binding affinity of the polypeptide can be quantitatively calculated. The assay may be conducted in the presence or absence of an unconjugated control polypeptide.

Binder	IC50
Ac-H[NMeR]QRSLQTLR[S5]IQR[S5][Cba][2Nal]-NH2 (staple 11-15) [SEQ ID NO: 166]	403 nM
Ac-HR[NMeD]RSLQTLR[S5]IQR[S5][Cba][2Nal]-NH2 (staple 11-15; SMILES CC[C@H](C)[C@@H]1NC(=O)[C@@](C)(NC(=O)[C@H](CCCNC(=N)N)NC(=O)[C@H](CC(C)C)NC(=O)[C@@H](NC(=O)[C@H](CCC(N)=O)NC(=O)[C@H](CC(C)C)NC(=O)[C@H](CO)NC(=O)[C@H](CCCNC(=N)N)NC(=O)[C@H](CC(=O)O)N(C)C(=O)[C@H](CCCNC(=N)N)NC(=O)[C@H](Cc2c[nH]cn2)NC(C)=O)[C@@H](C)O)CCCC=CCCC[C@@](C)(C(=O)N[C@@H](CC2CCC2)C(=O)N[C@@H](Cc2ccc3ccccc3c2)C(N)=O)NC(=O)[C@H](CCCNC(=N)N)NC(=O)[C@H](CCC(N)=O)NC1=O) [SEQ ID NO: 157]	525 nM
Ac-HQERSLQTLR[S5]IQR[S5]L[2Nal]-NH2 (staple 11-15; not fully specified; printed as HQERSLQTLRXIQRXL(2-Nal)) [SEQ ID NO: 11]	2110 nM
Ac-HRQRSLQTLR[S5]IQR[S5][Phe(4-Cl)][2Nal]-NH2 (staple 11-15; SMILES CC[C@H](C)[C@@H]1NC(=O)[C@@](C)(NC(=O)[C@H](CCCNC(=N)N)NC(=O)[C@H](CC(C)C)NC(=O)[C@@H](NC(=O)[C@H](CCC(N)=O)NC(=O)[C@H](CC(C)C)NC(=O)[C@H](CO)NC(=O)[C@H](CCCNC(=N)N)NC(=O)[C@H](CCC(N)=O)NC(=O)[C@H](CCCNC(=N)N)NC(=O)[C@H](Cc2c[nH]cn2)NC(C)=O)[C@@H](C)O)CCCC=CCCC[C@@](C)(C(=O)N[C@@H](Cc2ccc(Cl)cc2)C(=O)N[C@@H](Cc2ccc3ccccc3c2)C(N)=O)NC(=O)[C@H](CCCNC(=N)N)NC(=O)[C@H](CCC(N)=O)NC1=O) [SEQ ID NO: 179]	59 nM
Ac-HRQRTLQTLR[S5]IQR[S5][Cba][2Nal]-NH2 (staple 11-15) [SEQ ID NO: 159]	291 nM
Ac-HR[NMeE]RSLQTLR[S5]IQR[S5][Cba][2Nal]-NH2 (staple 11-15; SMILES CC[C@H](C)[C@@H]1NC(=O)[C@@](C)(NC(=O)[C@H](CCCNC(=N)N)NC(=O)[C@H](CC(C)C)NC(=O)[C@@H](NC(=O)[C@H](CCC(N)=O)NC(=O)[C@H](CC(C)C)NC(=O)[C@H](CO)NC(=O)[C@H](CCCNC(=N)N)NC(=O)[C@H](CCC(=O)O)N(C)C(=O)[C@H](CCCNC(=N)N)NC(=O)[C@H](Cc2c[nH]cn2)NC(C)=O)[C@@H](C)O)CCCC=CCCC[C@@](C)(C(=O)N[C@@H](CC2CCC2)C(=O)N[C@@H](Cc2ccc3ccccc3c2)C(N)=O)NC(=O)[C@H](CCCNC(=N)N)NC(=O)[C@H](CCC(N)=O)NC1=O) [SEQ ID NO: 151]	261 nM
Ac-HRQRS[Cba]QTLR[S5]IQR[S5][Cba][2Nal]-NH2 (staple 11-15; SMILES CC[C@H](C)[C@@H]1NC(=O)[C@@](C)(NC(=O)[C@H](CCCNC(=N)N)NC(=O)[C@H](CC(C)C)NC(=O)[C@@H](NC(=O)[C@H](CCC(N)=O)NC(=O)[C@H](CC2CCC2)NC(=O)[C@H](CO)NC(=O)[C@H](CCCNC(=N)N)NC(=O)[C@H](CCC(N)=O)NC(=O)[C@H](CCCNC(=N)N)NC(=O)[C@H](Cc2c[nH]cn2)NC(C)=O)[C@@H](C)O)CCCC=CCCC[C@@](C)(C(=O)N[C@@H](CC2CCC2)C(=O)N[C@@H](Cc2ccc3ccccc3c2)C(N)=O)NC(=O)[C@H](CCCNC(=N)N)NC(=O)[C@H](CCC(N)=O)NC1=O) [SEQ ID NO: 156]	253 nM
Ac-HRQRS[Cha][NMeQ]TLR[S5]IQR[S5][Cha][2Nal]-NH2 (staple 11-15; also: N-MeGln at 7: D or L (both stated)) [SEQ ID NO: 185]	223 nM
Ac-HRQRS[NMeCha][NMeQ]TLR[S5]IQR[S5][Cha][2Nal]-NH2 (staple 11-15; also: N-MeGln at 7: D or L (both stated)) [SEQ ID NO: 186]	232 nM
Ac-HRERSLQTLR[S5]IQE[S5][Cba][2Nal]-OH (staple 11-15; SMILES CC[C@H](C)[C@@H]1NC(=O)[C@@](C)(NC(=O)[C@H](CCCNC(=N)N)NC(=O)[C@H](CC(C)C)NC(=O)[C@@H](NC(=O)[C@H](CCC(N)=O)NC(=O)[C@H](CC(C)C)NC(=O)[C@H](CO)NC(=O)[C@H](CCCNC(=N)N)NC(=O)[C@H](CCC(=O)O)NC(=O)[C@H](CCCNC(=N)N)NC(=O)[C@H](Cc2c[nH]cn2)NC(C)=O)[C@@H](C)O)CCCC=CCCC[C@@](C)(C(=O)N[C@@H](CC2CCC2)C(=O)N[C@@H](Cc2ccc3ccccc3c2)C(=O)O)NC(=O)[C@H](CCC(=O)O)NC(=O)[C@H](CCC(N)=O)NC1=O) [SEQ ID NO: 146]	493 nM
Ac-HRQRSLQTLR[S5]IQR[S5][Tle][2Nal]-NH2 (staple 11-15; SMILES CC[C@H](C)[C@@H]1NC(=O)[C@@](C)(NC(=O)[C@H](CCCNC(=N)N)NC(=O)[C@H](CC(C)C)NC(=O)[C@@H](NC(=O)[C@H](CCC(N)=O)NC(=O)[C@H](CC(C)C)NC(=O)[C@H](CO)NC(=O)[C@H](CCCNC(=N)N)NC(=O)[C@H](CCC(N)=O)NC(=O)[C@H](CCCNC(=N)N)NC(=O)[C@H](Cc2c[nH]cn2)NC(C)=O)[C@@H](C)O)CCCC=CCCC[C@@](C)(C(=O)N[C@H](C(=O)N[C@@H](Cc2ccc3ccccc3c2)C(N)=O)C(C)(C)C)NC(=O)[C@H](CCCNC(=N)N)NC(=O)[C@H](CCC(N)=O)NC1=O) [SEQ ID NO: 192]	329 nM
Ac-HRERSLQTLR[S5]IQQ[S5][Cba][2Nal]-NH2 (staple 11-15; SMILES CC[C@H](C)[C@@H]1NC(=O)[C@@](C)(NC(=O)[C@H](CCCNC(=N)N)NC(=O)[C@H](CC(C)C)NC(=O)[C@@H](NC(=O)[C@H](CCC(N)=O)NC(=O)[C@H](CC(C)C)NC(=O)[C@H](CO)NC(=O)[C@H](CCCNC(=N)N)NC(=O)[C@H](CCC(=O)O)NC(=O)[C@H](CCCNC(=N)N)NC(=O)[C@H](Cc2c[nH]cn2)NC(C)=O)[C@@H](C)O)CCCC=CCCC[C@@](C)(C(=O)N[C@@H](CC2CCC2)C(=O)N[C@@H](Cc2ccc3ccccc3c2)C(N)=O)NC(=O)[C@H](CCC(N)=O)NC(=O)[C@H](CCC(N)=O)NC1=O) [SEQ ID NO: 145]	154 nM
Ac-HRERSLQTLR[S5]IQR[S5][Cba][2Nal]-NH2 (staple 11-15; SMILES CC[C@H](C)[C@@H]1NC(=O)[C@@](C)(NC(=O)[C@H](CCCNC(=N)N)NC(=O)[C@H](CC(C)C)NC(=O)[C@@H](NC(=O)[C@H](CCC(N)=O)NC(=O)[C@H](CC(C)C)NC(=O)[C@H](CO)NC(=O)[C@H](CCCNC(=N)N)NC(=O)[C@H](CCC(=O)O)NC(=O)[C@H](CCCNC(=N)N)NC(=O)[C@H](Cc2c[nH]cn2)NC(C)=O)[C@@H](C)O)CCCC=CCCC[C@@](C)(C(=O)N[C@@H](CC2CCC2)C(=O)N[C@@H](Cc2ccc3ccccc3c2)C(N)=O)NC(=O)[C@H](CCCNC(=N)N)NC(=O)[C@H](CCC(N)=O)NC1=O) [SEQ ID NO: 14]	457 nM
Ac-HRERSLQTLR[S5]IQA[S5][Cba][2Nal]-NH2 (staple 11-15; not fully specified; printed as HRERSLQTLRXIQAX(CBA)(2-Nal)) [SEQ ID NO: 29]	1350 nM
Ac-HRERSLQTLR[S5]IQR[S5]L[2Nal]-NH2 (staple 11-15; not fully specified; printed as HRERSLQTLRXIQRXL(2-Nal)) [SEQ ID NO: 6]	670 nM
Ac-HR[NMeQ]RSLQTLR[S5]IQR[S5][Tle][2Nal]-NH2 (staple 11-15; also: N-methylglutamine 3: D or L (filing names both)) [SEQ ID NO: 194]	398 nM
Ac-HRERSLQTL[NMeR][S5]IQR[S5][Cba][2Nal]-OH (staple 11-15; not fully specified) [SEQ ID NO: 152]	794 nM
Ac-HRERSLQTLR[S5]IQA[S5]L[2Nal]-NH2 (staple 11-15; not fully specified; printed as HRERSLQTLRXIQAXL(2-Nal)) [SEQ ID NO: 28]	2000 nM
